Measurements published in patent publication US20140087995A1 (published 2014).
Numbered stars: 1 amine (or outer) side, 2 acyl side, 3 side chain; on linkers, the order of the positions; unused ones are H or OH. Bridge positions count the residues as written; N and C are the ends. * marks the point of attachment. C20 diacid = O=C(O)CCCCCCCCCCCCCCCCCCC(=O)*; γGlu = O=C(O)[C@H](CCC(=O)[*:2])N[*:1]

T1: rat calcitonin receptor (rat, UniProt P32214 25-516)
T1 construct: whole, on cells; Used as membranes prepared from the transfected cells; also called rCTR; rat calcitonin (a) receptor
T1 sequence (looked up): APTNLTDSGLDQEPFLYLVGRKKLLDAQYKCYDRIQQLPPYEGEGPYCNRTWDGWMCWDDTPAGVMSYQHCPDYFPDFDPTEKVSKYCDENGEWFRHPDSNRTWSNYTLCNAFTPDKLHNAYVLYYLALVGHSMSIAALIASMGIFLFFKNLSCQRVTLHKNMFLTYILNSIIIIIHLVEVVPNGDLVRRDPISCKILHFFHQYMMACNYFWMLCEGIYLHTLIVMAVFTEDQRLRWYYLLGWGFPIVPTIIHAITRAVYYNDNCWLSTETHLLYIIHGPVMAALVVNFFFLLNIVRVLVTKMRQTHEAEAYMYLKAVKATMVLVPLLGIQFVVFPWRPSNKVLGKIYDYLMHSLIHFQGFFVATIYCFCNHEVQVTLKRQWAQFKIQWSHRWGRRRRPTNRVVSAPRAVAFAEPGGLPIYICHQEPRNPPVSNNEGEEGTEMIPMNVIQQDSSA

T2: human calcitonin receptor (human, UniProt P30988 25-474)
T2 construct: whole, on cells; Used as membranes prepared from the transfected cells (Assay VII); also called hCTR; hCT
T2 sequence (looked up): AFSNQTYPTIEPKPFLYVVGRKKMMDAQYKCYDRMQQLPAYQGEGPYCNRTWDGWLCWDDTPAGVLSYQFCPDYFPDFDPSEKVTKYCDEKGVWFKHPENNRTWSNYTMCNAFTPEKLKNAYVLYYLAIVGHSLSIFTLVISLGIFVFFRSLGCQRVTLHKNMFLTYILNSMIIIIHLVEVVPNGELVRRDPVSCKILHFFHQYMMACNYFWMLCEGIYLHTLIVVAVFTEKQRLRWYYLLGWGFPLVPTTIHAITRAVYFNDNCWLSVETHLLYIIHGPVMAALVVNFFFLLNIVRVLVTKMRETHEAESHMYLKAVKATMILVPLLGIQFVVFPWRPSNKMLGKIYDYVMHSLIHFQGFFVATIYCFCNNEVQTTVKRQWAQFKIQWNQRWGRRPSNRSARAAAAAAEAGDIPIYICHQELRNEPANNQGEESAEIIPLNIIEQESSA

T3: rat amylin receptor (rat calcitonin receptor + rat RAMP 3) (rat, UniProt P32214 25-516; Q9JJ73 23-147)
T3 construct: whole, on cells; Used as membranes prepared from the transfected cells; also called rAmylin-R; rat amylin 3(a) receptor
T3 sequence (looked up) 1: T1 sequence (looked up)
T3 sequence (looked up) 2: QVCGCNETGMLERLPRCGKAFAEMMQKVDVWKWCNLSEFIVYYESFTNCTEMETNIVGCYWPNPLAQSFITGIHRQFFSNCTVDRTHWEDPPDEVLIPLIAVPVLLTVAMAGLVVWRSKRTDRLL

B1: N^α1-[(4S)-4-carboxy-4-(19-carboxynonadecanoylamino)butanoyl]-[Glu14,Arg17,Pro21,Pro27,Arg35]-h-amylin (peptide)
peptide: {C20 diacid-γGlu}-KCNTATCATQRLAEFLRHSSPNFGAIPSSTNVGSRTY-NH2
modifications: disulfide 2-7
SMILES: CC[C@H](C)[C@H](NC(=O)[C@H](C)NC(=O)CNC(=O)[C@H](Cc1ccccc1)NC(=O)[C@H](CC(N)=O)NC(=O)[C@@H]1CCCN1C(=O)[C@H](CO)NC(=O)[C@H](CO)NC(=O)[C@H](Cc1c[nH]cn1)NC(=O)[C@H](CCCNC(=N)N)NC(=O)[C@H](CC(C)C)NC(=O)[C@H](Cc1ccccc1)NC(=O)[C@H](CCC(=O)O)NC(=O)[C@H](C)NC(=O)[C@H](CC(C)C)NC(=O)[C@H](CCCNC(=N)N)NC(=O)[C@H](CCC(N)=O)NC(=O)[C@@H](NC(=O)[C@H](C)NC(=O)[C@@H]1CSSC[C@H](NC(=O)[C@H](CCCCN)NC(=O)CC[C@H](NC(=O)CCCCCCCCCCCCCCCCCCC(=O)O)C(=O)O)C(=O)N[C@@H](CC(N)=O)C(=O)N[C@@H]([C@@H](C)O)C(=O)N[C@@H](C)C(=O)N[C@@H]([C@@H](C)O)C(=O)N1)[C@@H](C)O)C(=O)N1CCC[C@H]1C(=O)N[C@@H](CO)C(=O)N[C@@H](CO)C(=O)N[C@H](C(=O)N[C@@H](CC(N)=O)C(=O)N[C@H](C(=O)NCC(=O)N[C@@H](CO)C(=O)N[C@@H](CCCNC(=N)N)C(=O)N[C@H](C(=O)N[C@@H](Cc1ccc(O)cc1)C(N)=O)[C@@H](C)O)C(C)C)[C@@H](C)O
notes: Derivative of human amylin; also called compound 16
B2: N^α1-[(4S)-4-carboxy-4-(19-carboxynonadecanoylamino)butanoyl]-[Glu14,Arg17,Pro21,Pro27,Pro31]-h-amylin (peptide)
peptide: {C20 diacid-γGlu}-KCNTATCATQRLAEFLRHSSPNFGAIPSSTPVGSNTY-NH2
modifications: disulfide 2-7
SMILES: CC[C@H](C)[C@H](NC(=O)[C@H](C)NC(=O)CNC(=O)[C@H](Cc1ccccc1)NC(=O)[C@H](CC(N)=O)NC(=O)[C@@H]1CCCN1C(=O)[C@H](CO)NC(=O)[C@H](CO)NC(=O)[C@H](Cc1c[nH]cn1)NC(=O)[C@H](CCCNC(=N)N)NC(=O)[C@H](CC(C)C)NC(=O)[C@H](Cc1ccccc1)NC(=O)[C@H](CCC(=O)O)NC(=O)[C@H](C)NC(=O)[C@H](CC(C)C)NC(=O)[C@H](CCCNC(=N)N)NC(=O)[C@H](CCC(N)=O)NC(=O)[C@@H](NC(=O)[C@H](C)NC(=O)[C@@H]1CSSC[C@H](NC(=O)[C@H](CCCCN)NC(=O)CC[C@H](NC(=O)CCCCCCCCCCCCCCCCCCC(=O)O)C(=O)O)C(=O)N[C@@H](CC(N)=O)C(=O)N[C@@H]([C@@H](C)O)C(=O)N[C@@H](C)C(=O)N[C@@H]([C@@H](C)O)C(=O)N1)[C@@H](C)O)C(=O)N1CCC[C@H]1C(=O)N[C@@H](CO)C(=O)N[C@@H](CO)C(=O)N[C@H](C(=O)N1CCC[C@H]1C(=O)N[C@H](C(=O)NCC(=O)N[C@@H](CO)C(=O)N[C@@H](CC(N)=O)C(=O)N[C@H](C(=O)N[C@@H](Cc1ccc(O)cc1)C(N)=O)[C@@H](C)O)C(C)C)[C@@H](C)O
notes: Derivative of human amylin; also called compound 31
B3: N^α1-[(4S)-4-carboxy-4-(19-carboxynonadecanoylamino)butanoyl]-[Glu14,Arg17,Pro21,Pro27,His34]-h-amylin (peptide)
peptide: {C20 diacid-γGlu}-KCNTATCATQRLAEFLRHSSPNFGAIPSSTNVGHNTY-NH2
modifications: disulfide 2-7
SMILES: CC[C@H](C)[C@H](NC(=O)[C@H](C)NC(=O)CNC(=O)[C@H](Cc1ccccc1)NC(=O)[C@H](CC(N)=O)NC(=O)[C@@H]1CCCN1C(=O)[C@H](CO)NC(=O)[C@H](CO)NC(=O)[C@H](Cc1c[nH]cn1)NC(=O)[C@H](CCCNC(=N)N)NC(=O)[C@H](CC(C)C)NC(=O)[C@H](Cc1ccccc1)NC(=O)[C@H](CCC(=O)O)NC(=O)[C@H](C)NC(=O)[C@H](CC(C)C)NC(=O)[C@H](CCCNC(=N)N)NC(=O)[C@H](CCC(N)=O)NC(=O)[C@@H](NC(=O)[C@H](C)NC(=O)[C@@H]1CSSC[C@H](NC(=O)[C@H](CCCCN)NC(=O)CC[C@H](NC(=O)CCCCCCCCCCCCCCCCCCC(=O)O)C(=O)O)C(=O)N[C@@H](CC(N)=O)C(=O)N[C@@H]([C@@H](C)O)C(=O)N[C@@H](C)C(=O)N[C@@H]([C@@H](C)O)C(=O)N1)[C@@H](C)O)C(=O)N1CCC[C@H]1C(=O)N[C@@H](CO)C(=O)N[C@@H](CO)C(=O)N[C@H](C(=O)N[C@@H](CC(N)=O)C(=O)N[C@H](C(=O)NCC(=O)N[C@@H](Cc1c[nH]cn1)C(=O)N[C@@H](CC(N)=O)C(=O)N[C@H](C(=O)N[C@@H](Cc1ccc(O)cc1)C(N)=O)[C@@H](C)O)C(C)C)[C@@H](C)O
notes: Derivative of human amylin; also called compound 17
B4: N^α1-[(4S)-4-carboxy-4-(19-carboxynonadecanoylamino)butanoyl]-[Glu14,Arg17,Pro21,Pro27,His35]-h-amylin (peptide)
peptide: {C20 diacid-γGlu}-KCNTATCATQRLAEFLRHSSPNFGAIPSSTNVGSHTY-NH2
modifications: disulfide 2-7
SMILES: CC[C@H](C)[C@H](NC(=O)[C@H](C)NC(=O)CNC(=O)[C@H](Cc1ccccc1)NC(=O)[C@H](CC(N)=O)NC(=O)[C@@H]1CCCN1C(=O)[C@H](CO)NC(=O)[C@H](CO)NC(=O)[C@H](Cc1c[nH]cn1)NC(=O)[C@H](CCCNC(=N)N)NC(=O)[C@H](CC(C)C)NC(=O)[C@H](Cc1ccccc1)NC(=O)[C@H](CCC(=O)O)NC(=O)[C@H](C)NC(=O)[C@H](CC(C)C)NC(=O)[C@H](CCCNC(=N)N)NC(=O)[C@H](CCC(N)=O)NC(=O)[C@@H](NC(=O)[C@H](C)NC(=O)[C@@H]1CSSC[C@H](NC(=O)[C@H](CCCCN)NC(=O)CC[C@H](NC(=O)CCCCCCCCCCCCCCCCCCC(=O)O)C(=O)O)C(=O)N[C@@H](CC(N)=O)C(=O)N[C@@H]([C@@H](C)O)C(=O)N[C@@H](C)C(=O)N[C@@H]([C@@H](C)O)C(=O)N1)[C@@H](C)O)C(=O)N1CCC[C@H]1C(=O)N[C@@H](CO)C(=O)N[C@@H](CO)C(=O)N[C@H](C(=O)N[C@@H](CC(N)=O)C(=O)N[C@H](C(=O)NCC(=O)N[C@@H](CO)C(=O)N[C@@H](Cc1c[nH]cn1)C(=O)N[C@H](C(=O)N[C@@H](Cc1ccc(O)cc1)C(N)=O)[C@@H](C)O)C(C)C)[C@@H](C)O
notes: Derivative of human amylin; also called compound 18
B5: N^α1-[(4S)-4-carboxy-4-(19-carboxynonadecanoylamino)butanoyl]-[Glu14,Arg17,Pro21,Pro27,Pro29]-h-amylin (peptide)
peptide: {C20 diacid-γGlu}-KCNTATCATQRLAEFLRHSSPNFGAIPSPTNVGSNTY-NH2
modifications: disulfide 2-7
SMILES: CC[C@H](C)[C@H](NC(=O)[C@H](C)NC(=O)CNC(=O)[C@H](Cc1ccccc1)NC(=O)[C@H](CC(N)=O)NC(=O)[C@@H]1CCCN1C(=O)[C@H](CO)NC(=O)[C@H](CO)NC(=O)[C@H](Cc1c[nH]cn1)NC(=O)[C@H](CCCNC(=N)N)NC(=O)[C@H](CC(C)C)NC(=O)[C@H](Cc1ccccc1)NC(=O)[C@H](CCC(=O)O)NC(=O)[C@H](C)NC(=O)[C@H](CC(C)C)NC(=O)[C@H](CCCNC(=N)N)NC(=O)[C@H](CCC(N)=O)NC(=O)[C@@H](NC(=O)[C@H](C)NC(=O)[C@@H]1CSSC[C@H](NC(=O)[C@H](CCCCN)NC(=O)CC[C@H](NC(=O)CCCCCCCCCCCCCCCCCCC(=O)O)C(=O)O)C(=O)N[C@@H](CC(N)=O)C(=O)N[C@@H]([C@@H](C)O)C(=O)N[C@@H](C)C(=O)N[C@@H]([C@@H](C)O)C(=O)N1)[C@@H](C)O)C(=O)N1CCC[C@H]1C(=O)N[C@@H](CO)C(=O)N1CCC[C@H]1C(=O)N[C@H](C(=O)N[C@@H](CC(N)=O)C(=O)N[C@H](C(=O)NCC(=O)N[C@@H](CO)C(=O)N[C@@H](CC(N)=O)C(=O)N[C@H](C(=O)N[C@@H](Cc1ccc(O)cc1)C(N)=O)[C@@H](C)O)C(C)C)[C@@H](C)O
notes: Derivative of human amylin; also called compound 37

biological target: T1, rat calcitonin receptor; assay: SPA competition with 125I-calcitonin, membranes of BHK cells with rat calcitonin receptor (Assay VIII)

Row | Binder | IC50 [nM]
1 | B1 | 55.2
2 | B2 | 26.5
3 | B3 | 97.2
4 | B4 | 13
5 | B5 | 7.35

biological target: T2, human calcitonin receptor; assay: ratio IC50 human calcitonin receptor / IC50 human amylin receptor (Assays VII and V)
Outline: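 IC₅₀ values were derived by one-site competition analysis of SPA counts. Cell membranes (35 ng/μL) with SPA beads were incubated with test compounds for 120 min at 25° C in Hepes buffer, pH 7.4, containing CaCl2, MgCl₂, OA and Tween20.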

Row | Binder | Ratio hCT/hAmylin binding
6 | B1 | 19.1
7 | B2 | 16
8 | B3 | 12.5
9 | B4 | 9.2
10 | B5 | 2.3

biological target: T3, rat amylin receptor (rat calcitonin …); assay: SPA competition with 125I-rat amylin, membranes of BHK cells with rat calcitonin receptor + rat RAMP3 (Assay VI)

Row | Binder | IC50 [nM]
11 | B1 | 1.21
12 | B2 | 0.619
13 | B3 | 2.71
14 | B4 | 0.476
15 | B5 | 0.514

biological target: T1, rat calcitonin receptor; assay: ratio IC50 rat calcitonin receptor / IC50 rat amylin receptor (Assays VIII and VI)

Row | Binder | Ratio rCT/rAmylin binding
16 | B1 | 45.6
17 | B2 | 42.8
18 | B3 | 35.9
19 | B4 | 27.3
20 | B5 | 14.3
